Measurements from paper PMC7205012 (Neuron, 2019).
Substitutions are numbered along the chain they refer to. Names and notes keep the numbering of the source.

B1: wild type human TRPA1 (transient receptor potential channel subfamily A member 1) (natural protein, UniProt O75762 1-1119, looked up)
chain: MKRSLRKMWRPGEKKEPQGVVYEDVPDDTEDFKESLKVVFEGSAYGLQNFNKQKKLKRCDDMDTFFLHYAAAEGQIELMEKITRDSSLEVLHEMDDYGNTPLHCAVEKNQIESVKFLLSRGANPNLRNFNMMAPLHIAVQGMNNEVMKVLLEHRTIDVNLEGENGNTAVIIACTTNNSEALQILLKKGAKPCKSNKWGCFPIHQAAFSGSKECMEIILRFGEEHGYSRQLHINFMNNGKATPLHLAVQNGDLEMIKMCLDNGAQIDPVEKGRCTAIHFAATQGATEIVKLMISSYSGSVDIVNTTDGCHETMLHRASLFDHHELADYLISVGADINKIDSEGRSPLILATASASWNIVNLLLSKGAQVDIKDNFGRNFLHLTVQQPYGLKNLRPEFMQMQQIKELVMDEDNDGCTPLHYACRQGGPGSVNNLLGFNVSIHSKSKDKKSPLHFAASYGRINTCQRLLQDISDTRLLNEGDLHGMTPLHLAAKNGHDKVVQLLLKKGALFLSDHNGWTALHHASMGGYTQTMKVILDTNLKCTDRLDEDGNTALHFAAREGHAKAVALLLSHNADIVLNKQQASFLHLALHNKRKEVVLTIIRSKRWDECLKIFSHNSPGNKCPITEMIEYLPECMKVLLDFCMLHSTEDKSCRDYYIEYNFKYLQCPLEFTKKTPTQDVIYEPLTALNAMVQNNRIELLNHPVCKEYLLMKWLAYGFRAHMMNLGSYCLGLIPMTILVVNIKPGMAFNSTGIINETSDHSEILDTTNSYLIKTCMILVFLSSIFGYCKEAGQIFQQKRNYFMDISNVLEWIIYTTGIIFVLPLFVEIPAHLQWQCGAIAVYFYWMNFLLYLQRFENCGIFIVMLEVILKTLLRSTVVFIFLLLAFGLSFYILLNLQDPFSSPLLSIIQTFSMMLGDINYRESFLEPYLRNELAHPVLSFAQLVSFTIFVPIVLMNLLIGLAVGDIAEVQKHASLKRIAMQVELHTSLEKKLPLWFLRKVDQKSTIVYPNKPRSGGMLFHIFCFLFCTGEIRQEIPNADKSLEMEILKQKYRLKDLTFLLEKQHELIKLIIQKMEIISETEDDDSHCSFQDRFKKEQMEQRNSRWNTVLRAVKAKTHHLEP
modifications: C621 covalently bound to JT010 (TRPA1_(WT-JT010)) or to BITC (TRPA1_(WT-BITC)); N747 glycosylated (two N-acetylglucosamine)
B2: human TRPA1 C621S (natural protein, UniProt O75762 1-1119, looked up)
chain: B1 chain with C621S

Target: the molecule itself
Experiment: cryo-EM structure

| Protein | stoichiometry N |
| --- | --- |
| B1 | 4 |
| B2 | 4 |
